This note sets out measurements from article PMC7276988, “Cryo-EM Structure of the Fork Protection Complex Bound to CMG at a Replication Fork” (Molecular Cell, 2020).

Sequences and labels used below:
B1: Mcm7 (natural protein, S. cerevisiae)
chain: MSAALPSIQLPVDYNNLFNEITDFLVTFKQDTLSSDATRNENEDENLDAENIEQHLLEKGPKYMAMLQKVANRELNSVIIDLDDILQYQNEKFLQGTQADDLVSAIQQNANHFTELFCRAIDNNMPLPTKEIDYKDDVLDVILNQRRLRNERMLSDRTNEIRSENLMDTTMDPPSSMNDALREVVEDETELFPPNLTRRYFLYFKPLSQNCARRYRKKAISSKPLSVRQIKGDFLGQLITVRGIITRVSDVKPAVEVIAYTCDQCGYEVFQEVNSRTFTPLSECTSEECSQNQTKGQLFMSTRASKFSAFQECKIQELSQQVPVGHIPRSLNIHVNGTLVRSLSPGDIVDVTGIFLPAPYTGFKALKAGLLTETYLEAQFVRQHKKKFASFSLTSDVEERVMELITSGDVYNRLAKSIAPEIYGNLDVKKALLLLLVGGVDKRVGDGMKIRGDINVCLMGDPGVAKSQLLKAICKISPRGVYTTGKGSSGVGLTAAVMKDPVTDEMILEGGALVLADNGICCIDEFDKMDESDRTAIHEVMEQQTISISKAGINTTLNARTSILAAANPLYGRYNPRLSPLDNINLPAALLSRFDILFLMLDIPSRDDDEKLAEHVTYVHMHNKQPDLDFTPVEPSKMREYIAYAKTKRPVMSEAVNDYVVQAYIRLRQDSKREMDSKFSFGQATPRTLLGIIRLSQALAKLRLADMVDIDDVEEALRLVRVSKESLYQETNKSKEDESPTTKIFTIIKKMLQETGKNTLSYENIVKTVRLRGFTMLQLSNCIQEYSYLNVWHLINEGNTLKFVDDGTMDTDQEDSLVSTPKLAPQTTASANVSAQDSDIDLQDA
notes: Mcm7, S. cerevisiae, subunit of CMG; source: S. cerevisiae, overexpressed, purified as part of CMG
B2: Csm3 (natural protein, S. cerevisiae)
chain: MDQDFDSLLLGFNDSDSVQKDPTVPNGLDGSVVDPTIADPTAITARKRRPQVKLTAEKLLSDKGLPYVLKNAHKRIRISSKKNSYDNLSNIIQFYQLWAHELFPKAKFKDFMKICQTVGKTDPVLREYRVSLFRDEMGMSFDVGTRETGQDLERQSPMVEEHVTSAEERPIVADSFAQDKRNVNNVDYDNDEDDDIYHLSYRNRRGRVLDERGNNETVLNNVVPPKEDLDALLKTFRVQGPVGLEENEKKLLLGWLDAHRKMEKGSMTEEDVQLIQSLEEWEMNDIEGQHTHYDLLPGGDEFGVDQDELDAMKEMGF
notes: Csm3, S. cerevisiae; residues 46-139 are resolved in the map; The Csm3 chain of m2; source: S. cerevisiae, overexpressed with Tof1, purified as Csm3/Tof1; in XL-MS part of the co-expressed, co-purified complex (yJY74)
B3: Ctf4 (natural protein, S. cerevisiae)
chain: MVSVIDKLVFDFGGKTLVSLAPDNNTLCVANKNGLTKILKTNNPEEEPETLDSSKLVSSIKCYSNSHFLMTTMQGDALRYNIDSSQEELLARFALPLRDCCVIHSGKMAVFGGDDLELILLELDDETHKKHAIKIDEQVSQISYNSQMNILAVSMINGKVQIFSLTSTIPNKVHELNDYIVANSYDDTHRDKILSNMMDDIDKDNDNDLSETADPDENNVADPEFCAANRICTRVAWHPKGLHFALPCADDTVKIFSIKGYSLQKTLSTNLSSTKAHFIDLQFDPLRGTYIAAVDLNNKLTVWNWETSEIHYTREFKRKITNIAWKIQADSKTLDLVLGTWSGSIAIVQNLAESVVSNIPDQSVAESSTKHGLFVDSESDLENLEGNDDINKSDKLFSDITQEANAEDVFTQTHDGPSGLSEKRKYNFEDEEDFIDDDDGAGYISGKKPHNEHSYSRVHKTHSFPISLANTGKFRYMPFSPAGTPFGFTDRRYLTMNEVGYVSTVKNSEQYSITVSFFDVGRFREYHFEDLFGYDLCFLNEKGTLFGQSKTGQIQYRPHDSIHSNWTKIIPLQAGERITSVAATPVRVIVGTSLGYFRSFNQFGVPFAVEKTSPIVALTAQNYRVFSVHYSQFHGLSYSLSELGTSSKRYYKRECPLPMSLPNINSDMKKDANLDYYNFNPMGIKSLFFSSYGDPCIFGSDNTLLLLSKWRSPEESKWLPILDSNMEIWKMSGGKETTDIHVWPLALAYDTLNCILVKGKHIWPEFPLPLPSEMEIRMPVFVKSKLLEENKAILNKKNEIGADTEAEEGEEDKEIQIPVSMAAEEEYLRSKVLSELLTDTLENDGEMYGNENEVLAALNGAYDKALLRLFASACSDQNVEKALSLAHELKQDRALTAAVKISERAELPSLVKKINNIREARYEQQLK
notes: Ctf4, S. cerevisiae; only the C-terminal part is resolved in the map; Homotrimer; also called Ctf4 trimer; Ctf4_(3); source: purified as previously described (Yeeles et al., 2015); also co-expressed with CMG, Csm3/Tof1 and Mrc1 in S. cerevisiae yJY74 and co-purified

Holding throughout (assay): cryo-EM structure; reconstituted from purified CMG, fork DNA, Csm3/Tof1, Ctf4, Mrc1 with AMP-PNP; glycerol gradient fixation (glutaraldehyde and BS3)
The target of one data set is T1, Tof1 (S. cerevisiae, UniProt P53840 1-1238, phosphorylated (sites not given)).
T1 construct: Tof1, S. cerevisiae; residues 13-781 are resolved in the map; The Tof1 chain of m2; source: S. cerevisiae, overexpressed with Csm3, purified as Csm3/Tof1; in XL-MS part of the co-expressed, co-purified complex (yJY74)
T1 sequence: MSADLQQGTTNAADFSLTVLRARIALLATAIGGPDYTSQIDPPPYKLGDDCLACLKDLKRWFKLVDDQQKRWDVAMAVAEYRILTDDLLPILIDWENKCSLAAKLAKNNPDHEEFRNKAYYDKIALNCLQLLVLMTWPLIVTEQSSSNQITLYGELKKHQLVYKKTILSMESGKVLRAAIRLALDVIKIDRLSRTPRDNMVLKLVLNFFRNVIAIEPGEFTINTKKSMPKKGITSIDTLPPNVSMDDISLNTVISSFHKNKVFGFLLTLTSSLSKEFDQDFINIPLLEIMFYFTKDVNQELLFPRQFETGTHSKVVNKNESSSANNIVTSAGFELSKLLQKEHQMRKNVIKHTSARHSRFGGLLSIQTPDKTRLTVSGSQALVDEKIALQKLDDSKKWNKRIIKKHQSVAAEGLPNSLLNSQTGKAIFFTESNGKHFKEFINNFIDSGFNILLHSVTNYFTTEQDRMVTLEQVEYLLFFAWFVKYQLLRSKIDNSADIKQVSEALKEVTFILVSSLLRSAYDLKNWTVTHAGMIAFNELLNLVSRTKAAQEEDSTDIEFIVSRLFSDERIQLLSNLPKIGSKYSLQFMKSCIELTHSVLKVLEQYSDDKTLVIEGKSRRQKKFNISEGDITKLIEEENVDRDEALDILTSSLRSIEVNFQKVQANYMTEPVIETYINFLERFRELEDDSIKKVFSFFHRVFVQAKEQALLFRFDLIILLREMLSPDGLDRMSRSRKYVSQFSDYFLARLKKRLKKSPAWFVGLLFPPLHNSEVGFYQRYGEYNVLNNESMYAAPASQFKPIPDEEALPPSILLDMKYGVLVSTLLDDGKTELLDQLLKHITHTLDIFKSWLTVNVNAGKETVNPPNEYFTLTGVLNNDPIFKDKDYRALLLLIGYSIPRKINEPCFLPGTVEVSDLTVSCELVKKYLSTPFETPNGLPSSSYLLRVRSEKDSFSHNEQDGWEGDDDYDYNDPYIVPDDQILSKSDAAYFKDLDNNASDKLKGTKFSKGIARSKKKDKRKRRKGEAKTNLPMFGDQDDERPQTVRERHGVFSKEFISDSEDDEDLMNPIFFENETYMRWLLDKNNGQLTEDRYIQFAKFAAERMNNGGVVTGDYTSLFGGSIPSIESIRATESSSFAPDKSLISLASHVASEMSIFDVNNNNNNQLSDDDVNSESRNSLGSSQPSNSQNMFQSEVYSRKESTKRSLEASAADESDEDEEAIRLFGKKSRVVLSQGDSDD
As to conditions: both partners purified.

In the data set “Mcm7” the target is B1. The settings on record: both partners purified.
Data set [1] deals with the molecule itself.

As to B1, in the data set with Tof1, the binding result was “binds”.

For B2, the binding result in the data set with Mcm7 was “binds”. The stoichiometry N is a count of units in the complex or per binding partner. Take B3: the “stoichiometry N” value in data set [1] turned out to be 3.
